# Assay results as given in article PMC3323579.
# Legend:
# [1] = molecular target: yeast 26S proteasome (RPN11-3XFLAG) (yeast) (UniProt P43588)
# [2] = molecular target: yeast 26S proteasome (RPN11-3XFLAG) (yeast) (UniProt P43588); experiment: ELISA; 26S proteasome (1 µg/ml, 0.37 nM) captured on plates coated with anti-FLAG antibody; Mb 580 nM to 0.006 nM in TBST with 1 mM ATP, 5 mM MgCl2, 0.1% BSA; bound Mb detected with anti-Mb antibody; one site specific binding fit
# [3] = molecular target: yeast 26S proteasome (RPN11-3XFLAG) (yeast) (UniProt P43588); experiment: ELISA; competition: 8 nM apoMb on immobilised 26S proteasome with peptides 100 µM to 0.01 µM; 100 nM MG132 in all incubations; Ki from a one site binding fit
Substance,"stimulation of the ATPase activity of the 26S proteasome (580 nM substrate, 37°C, 15 min) [1] [fold]",Kd [2] [nM],percent inhibition of apoMb binding at 100 µM peptide [3] [%]
"apomyoglobin (sperm whale myoglobin, heme removed), wild type (from UniProt P02185 1-154) (natural protein)",2,3.5,–
apomyoglobin F-helix mutant G80A/P88A/S92A/H97N (natural protein),–,0.57,–
apomyoglobin L104C (G-helix mutant) (natural protein),–,0.6,–
apomyoglobin L115C (G-helix mutant) (natural protein),–,0.63,–
apomyoglobin M131C (H-helix mutant) (natural protein),–,45,–
apomyoglobin T39C (C-helix mutant) (natural protein),–,19.5,–
apomyoglobin V10C (A-helix mutant) (natural protein),–,1.25,–
myoglobin peptide E7 (69-83),–,–,34
myoglobin peptide F7 (90-104),–,–,65
